Results taken from patent publication US20220331394A1 (SUSAVION BIOSCIENCES, published 2022).
No end group written: not given here.

T1: recombinant human Ca2+-dependent lectin-type receptor family member 10A (CLEC10A) (human, UniProt Q8IUN9 61-316)
T1 construct: extracellular domain; Bought recombinant receptor; also called CD301; macrophage galactose-type lectin
T1 sequence (looked up): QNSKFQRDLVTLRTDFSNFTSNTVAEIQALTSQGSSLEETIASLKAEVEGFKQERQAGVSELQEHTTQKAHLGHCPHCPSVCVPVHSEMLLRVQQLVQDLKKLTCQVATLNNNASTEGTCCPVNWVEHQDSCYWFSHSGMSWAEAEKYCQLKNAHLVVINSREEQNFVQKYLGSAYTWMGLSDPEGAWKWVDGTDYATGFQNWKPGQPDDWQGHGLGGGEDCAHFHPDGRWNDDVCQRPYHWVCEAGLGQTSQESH

T2: recombinant human asialoglycoprotein receptor 1 (ASGPR-1) (human, UniProt P07306 62-291)
T2 construct: extracellular domain; Bought recombinant receptor; also called Ashwell-Morell receptor; CLEC4H1
T2 sequence (looked up): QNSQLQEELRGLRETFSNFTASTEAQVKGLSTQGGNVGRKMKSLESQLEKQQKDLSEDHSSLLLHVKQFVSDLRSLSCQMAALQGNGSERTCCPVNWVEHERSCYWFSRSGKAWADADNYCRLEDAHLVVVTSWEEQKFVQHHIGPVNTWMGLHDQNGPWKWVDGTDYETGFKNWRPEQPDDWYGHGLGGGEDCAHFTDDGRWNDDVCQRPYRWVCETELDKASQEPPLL

T3: IL-4R (human, UniProt P24394 26-232, limits assumed)
T3 construct: construct not described; also called receptor for IL-4
T3 sequence (looked up): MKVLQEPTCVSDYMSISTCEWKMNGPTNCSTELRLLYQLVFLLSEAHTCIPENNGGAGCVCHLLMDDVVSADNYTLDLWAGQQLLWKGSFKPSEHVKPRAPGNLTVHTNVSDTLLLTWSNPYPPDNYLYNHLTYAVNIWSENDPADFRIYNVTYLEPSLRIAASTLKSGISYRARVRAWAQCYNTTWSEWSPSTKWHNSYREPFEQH

T4: DC-SIGN (human, UniProt Q9NNX6 62-404, limits assumed)
T4 construct: construct not described; also called CD209; dendritic cell-specific intercellular adhesion molecule (ICAM)-3 grabbing non-integrin
T4 sequence (looked up): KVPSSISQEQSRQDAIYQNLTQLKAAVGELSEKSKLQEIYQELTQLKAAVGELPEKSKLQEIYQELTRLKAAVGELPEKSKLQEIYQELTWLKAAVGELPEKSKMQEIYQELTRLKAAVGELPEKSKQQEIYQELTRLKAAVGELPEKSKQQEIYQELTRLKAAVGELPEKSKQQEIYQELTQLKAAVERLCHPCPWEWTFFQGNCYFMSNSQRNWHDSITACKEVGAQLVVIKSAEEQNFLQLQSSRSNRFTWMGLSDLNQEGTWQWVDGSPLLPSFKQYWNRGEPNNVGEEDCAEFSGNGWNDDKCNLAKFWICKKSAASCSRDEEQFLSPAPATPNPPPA

T5: recombinant rat CLEC10A (rat, UniProt P49301 59-306, limits assumed)
T5 construct: construct not described; also called CLEC10A from rat
T5 sequence (looked up): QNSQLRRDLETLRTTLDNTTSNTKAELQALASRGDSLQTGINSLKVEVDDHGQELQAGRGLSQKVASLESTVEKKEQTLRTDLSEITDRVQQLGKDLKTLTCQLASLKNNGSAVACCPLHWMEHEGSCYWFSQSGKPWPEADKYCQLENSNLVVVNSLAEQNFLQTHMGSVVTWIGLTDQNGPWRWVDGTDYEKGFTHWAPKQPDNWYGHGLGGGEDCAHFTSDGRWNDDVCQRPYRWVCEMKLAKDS


Tests used:
[1] = molecular target: T1, recombinant human Ca2+-dependent …; test: solid-phase binding assay with recombinant human receptor
Description: (§1) Binding Assays Solid-phase binding assays were performed with streptavidin-, protein A/G-, or Nickel-coated microtiter plates (Pierce). His-tagged or Fc-fusion recombinant receptors (R&D Systems, Minneapolis, Minn.) were reconstituted in PBS. Sufficient receptors were added to wells to saturate the coating. His-tagged receptors were added to each well at a 5-fold excess over the stated capacity of the Ni coating to minimize non-specific binding of the peptide. Wells were washed three times with binding buffer (25 mM Tris HCl, pH 7.4, 150 mM NaCl, 0.05% Tween-20) to remove unbound receptor and 50 μL of 2 μM biotinylated peptide in binding buffer were added and allowed to incubate for 1 h. The wells were washed four times with binding buffer and then incubated with 50 μL of 1 μg/mL streptavidin conjugated with peroxidase (Sigma-Aldrich) for 1 h. […] After several minutes to allow color development, the reaction was stopped with 50 μL 1 M H₃PO₄ and absorbance was measured at 450 nm. Bound streptavidin was quantitated by the specific activity of peroxidase (absorbance/ng protein conjugate/min) under the conditions of the assay.
(§2) Solid-phase binding assays were performed with recombinant human receptors. […] After extensive washing, the bound receptor was measured by peroxidase conjugated to a receptor-specific antibody. […]

[2] = molecular target: T2, recombinant human asialoglycoprotein …; test: as above
Description: as §1, §2

[3] = molecular target: T3, IL-4R; test: solid-phase binding assay with recombinant receptor
Description: (§3) Binding Assays Solid-phase binding assays were performed with streptavidin-, protein A/G-, or Nickel-coated microtiter plates (Pierce). His-tagged or Fc-fusion recombinant receptors (R&D Systems, Minneapolis, Minn.) were reconstituted in PBS. Sufficient receptors were added to wells to saturate the coating. His-tagged receptors were added to each well at a 5-fold excess over the stated capacity of the Ni coating to minimize non-specific binding of the peptide. Wells were washed three times with binding buffer (25 mM Tris HCl, pH 7.4, 150 mM NaCl, 0.05% Tween-20) to remove unbound receptor and 50 μL of 2 μM biotinylated peptide in binding buffer were added and allowed to incubate for 1 h. The wells were washed four times with binding buffer and then incubated with 50 μL of 1 μg/mL streptavidin conjugated with peroxidase (Sigma-Aldrich) for 1 h. The wells were washed five times with binding buffer and 50 μL of peroxidase substrate (1-Step™ Ultra TMB, Pierce) were added. After several minutes to allow color development, the reaction was stopped with 50 μL 1 M H₃PO₄ and absorbance was measured at 450 nm. Bound streptavidin was quantitated by the specific activity of peroxidase (absorbance/ng protein conjugate/min) under the conditions of the assay.
(§4) Solid-phase binding assays were performed with recombinant human receptors. Three variations of the binding assay were used in this study, all of which allowed the arms of the tetravalent peptide to have full flexibility. (i) Biotinylated peptide was bound in microtiter wells coated with streptavidin and incubated with recombinant human receptors. After extensive washing, the bound receptor was measured by peroxidase conjugated to a receptor-specific antibody. (ii) The extracellular domains of receptors, which were fused with the Fc domain of immunoglobulin IgG, were bound in wells coated with protein A/G. Biotinylated peptide was incubated with the receptors and, after extensive washing, bound peptide was measured with streptavidin conjugated with peroxidase. Or (iii), recombinant receptors with a poly-His tag were bound to Nickel-coated wells and incubated with biotinylated peptide. svL4 and sv6D contain His residues (FIGS. 1A, 1C) and can bind to the Ni coating, which was minimized by adding sufficient poly-His-tagged receptor to saturate the Ni coating.

[4] = molecular target: T6, CLEC9A (human, UniProt Q6UXN8 57-241); test: as above
T6 construct: construct not described
T6 sequence (Q6UXN8 57-241 limits assumed): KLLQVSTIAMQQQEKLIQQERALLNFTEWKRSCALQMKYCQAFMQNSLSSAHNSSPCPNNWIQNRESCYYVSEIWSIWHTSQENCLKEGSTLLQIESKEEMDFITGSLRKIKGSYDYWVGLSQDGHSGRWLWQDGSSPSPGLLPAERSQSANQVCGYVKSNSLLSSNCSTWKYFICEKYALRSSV
Description: as §3, §4

[5] = molecular target: T4, DC-SIGN; test: as above
Description: as §3, §4

[6] = molecular target: T7, Siglec-1 (human, UniProt Q9BZZ2 20-1641, limits assumed); test: as above
T7 construct: construct not described
T7 sequence (Q9BZZ2 20-1641 limits assumed): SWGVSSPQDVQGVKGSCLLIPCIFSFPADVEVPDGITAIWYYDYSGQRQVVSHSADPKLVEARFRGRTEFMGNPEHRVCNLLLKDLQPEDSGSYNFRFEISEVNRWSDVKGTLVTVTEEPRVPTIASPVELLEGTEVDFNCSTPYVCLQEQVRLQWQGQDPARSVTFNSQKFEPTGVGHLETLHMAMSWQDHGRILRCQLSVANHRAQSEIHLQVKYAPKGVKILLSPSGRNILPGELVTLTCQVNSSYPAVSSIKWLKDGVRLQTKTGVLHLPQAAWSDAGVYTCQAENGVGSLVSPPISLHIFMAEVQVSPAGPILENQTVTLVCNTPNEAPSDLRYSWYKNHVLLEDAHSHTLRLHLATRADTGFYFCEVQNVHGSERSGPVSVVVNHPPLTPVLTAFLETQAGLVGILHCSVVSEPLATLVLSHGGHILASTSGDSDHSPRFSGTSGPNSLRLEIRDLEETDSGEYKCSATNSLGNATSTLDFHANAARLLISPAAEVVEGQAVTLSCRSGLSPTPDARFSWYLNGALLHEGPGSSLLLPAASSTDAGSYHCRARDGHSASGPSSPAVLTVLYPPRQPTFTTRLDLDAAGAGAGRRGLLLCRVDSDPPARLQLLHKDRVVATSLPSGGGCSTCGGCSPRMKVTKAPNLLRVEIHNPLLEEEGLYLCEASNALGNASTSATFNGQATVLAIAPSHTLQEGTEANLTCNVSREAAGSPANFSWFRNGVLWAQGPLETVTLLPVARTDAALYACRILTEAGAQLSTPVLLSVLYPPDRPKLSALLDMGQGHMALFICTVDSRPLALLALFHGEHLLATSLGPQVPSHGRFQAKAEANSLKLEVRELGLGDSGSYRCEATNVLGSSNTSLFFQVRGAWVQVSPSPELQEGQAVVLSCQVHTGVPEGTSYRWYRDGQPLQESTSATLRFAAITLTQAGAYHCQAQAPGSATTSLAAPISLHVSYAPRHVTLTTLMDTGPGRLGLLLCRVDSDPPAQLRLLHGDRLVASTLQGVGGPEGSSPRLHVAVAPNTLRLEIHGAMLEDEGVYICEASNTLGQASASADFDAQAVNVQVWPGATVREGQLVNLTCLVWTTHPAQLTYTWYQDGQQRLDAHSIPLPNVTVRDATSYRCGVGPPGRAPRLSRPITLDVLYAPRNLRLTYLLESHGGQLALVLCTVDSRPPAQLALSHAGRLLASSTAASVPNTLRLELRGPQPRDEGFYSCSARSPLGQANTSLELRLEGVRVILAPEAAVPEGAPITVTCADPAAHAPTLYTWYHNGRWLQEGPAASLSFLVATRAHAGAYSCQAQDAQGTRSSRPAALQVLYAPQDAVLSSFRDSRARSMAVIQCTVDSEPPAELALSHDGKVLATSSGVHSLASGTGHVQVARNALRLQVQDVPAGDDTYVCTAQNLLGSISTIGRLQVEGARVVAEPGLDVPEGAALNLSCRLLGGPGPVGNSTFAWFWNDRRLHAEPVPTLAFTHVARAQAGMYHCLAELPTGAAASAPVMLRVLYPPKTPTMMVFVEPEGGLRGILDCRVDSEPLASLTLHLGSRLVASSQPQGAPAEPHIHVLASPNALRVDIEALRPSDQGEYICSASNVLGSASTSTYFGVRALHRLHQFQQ
Description: as §3, §4

[7] = molecular target: T8, CD44 (human, UniProt P16070 21-220, limits assumed); test: as above
T8 construct: construct not described; also called receptor for hyaluronic acid
T8 sequence (P16070 21-220 limits assumed): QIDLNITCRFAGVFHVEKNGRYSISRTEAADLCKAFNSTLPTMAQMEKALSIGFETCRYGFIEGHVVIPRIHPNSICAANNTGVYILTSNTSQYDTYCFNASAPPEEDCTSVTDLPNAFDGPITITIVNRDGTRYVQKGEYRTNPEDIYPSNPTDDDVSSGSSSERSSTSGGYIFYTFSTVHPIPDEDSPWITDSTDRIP
Description: as §3, §4

[8] = molecular target: T1, recombinant human Ca2+-dependent …; test: solid-phase binding assay, double-reciprocal plot of binding vs. peptide concentration
Description: (§5) Binding was detected with streptavidin-peroxidase conjugate. Similar data were obtained in 2 experiments. (FIG. 3C) Inhibition by EGTA of binding of sv6D (pattern) or svL4 (solid) to CLEC10A and ASGPR-1, respectively. EGTA (1 mM) was added to the final concentrations indicated to assays. Retention of bound CLEC10A was determined by incubation with biotinylated anti-CLEC10A (goat IgG, R&D Systems) and detection with streptavidin-peroxidase conjugate (light grey circle). Similar data were obtained in 3 experiments. (FIG. 3D) Binding of svL4 and sv6D to human recombinant CLEC10A and ASGPR-1 as a function of concentration of peptide in the assay. The figure is representative of 4 separate assays.
as §3
(§6) Corresponding values for binding of svL4 to CLEC10A and ASGPR-1 of 0.24±0.04 μM and 0.21±0.03 μM, respectively, were obtained (FIG. 3D).

[9] = molecular target: T2, recombinant human asialoglycoprotein …; test: as above
Description: as §5, §3, §6

[10] = molecular target: T5, recombinant rat CLEC10A; test: solid-phase competition with biotinylated GalNAc-PAA
Description: as §5, with “FIGS. 3A-3D. sv6D as a mimetic of GalNAc. (FIG. 3A) Inhibition by sv6D of binding of multivalent GalNAc-PAA (GlycoTech Corp., Frederick, Md.) to recombinant rat CLEC10A and human ASGPR-1. The reaction mixture included approximately 200 pmoles of biotinylated GalNc-PAA and increasing concentrations of peptide. The figure includes average values from 3 independent experiments. (FIG. 3B) Biotinylated sv6D or GalNAc-PAA were incubated with rabbit antiserum raised against the 6D sequence (NQHTPR) conjugated to keyhole limpet hemocyanin (KLH). Binding was” for “Binding was”
To further determine whether sv6D interacts with the actual sugar binding site, the ability of sv6D to compete with GalNAc-PAA for binding was assayed. […]

Row | Binder | binding result [1] | binding result [2] | binding result [3] | binding result [4] | binding result [5] | binding result [6] | binding result [7] | Kd [8] [nM] | Kd [9] [nM] | binding result [10]
1 | VQATQSGGGS (also: arms on branched tri-lysine core as for svL4, biotinylated at C-terminus of core in binding assays, also called N-terminal half of svL4) [svC1] | no binding (tested: 2 µM biotinylated peptide) | no binding (tested: 2 µM biotinylated peptide) | – | – | – | – | – | – | – | –
2 | VQATQSNQHTPRGGGS (also: tetravalent: four arms joined through GGGS linker to branched tri-lysine core, core C-terminus amide or biotinyl-lysinyl-amide, the tie follows from svL4 being the 12-mer whose C-terminal 6-mer is sv6D (NQHTPR); also called tetravalent peptide svL4; full-length svL4) [svL4] | – | – | no binding (tested: 2 µM biotinylated peptide) | no binding (tested: 2 µM biotinylated peptide) | no binding (tested: 2 µM biotinylated peptide) | no binding (tested: 2 µM biotinylated peptide) | no binding (tested: 2 µM biotinylated peptide) | 240 | 210 | –
3 | NQHTPRGGGS (also: tetravalent: four arms joined through GGGS linker to branched tri-lysine core, core C-terminus amide or biotinyl-lysinyl-amide, Tetravalent branched construct: four arms NQHTPR + GGGS linker on a tri-lysine core; Biotinylated in solid-phase assays; also called tetravalent peptide sv6D; C-terminal half of svL4) [sv6D] | – | – | no binding (tested: 2 µM biotinylated peptide) | no binding (tested: 2 µM biotinylated peptide) | no binding (tested: 2 µM biotinylated peptide) | no binding (tested: 2 µM biotinylated peptide) | no binding (tested: 2 µM biotinylated peptide) | 150 | 120 | binds
